The target of experiment [1] is T1, full length monkey MSR1 on HEK293.mfMSR1 cells (Macaca fascicularis, UniProt A0A2K5UWE2 1-451).
T1 construct: whole, on cells
T1 sequence: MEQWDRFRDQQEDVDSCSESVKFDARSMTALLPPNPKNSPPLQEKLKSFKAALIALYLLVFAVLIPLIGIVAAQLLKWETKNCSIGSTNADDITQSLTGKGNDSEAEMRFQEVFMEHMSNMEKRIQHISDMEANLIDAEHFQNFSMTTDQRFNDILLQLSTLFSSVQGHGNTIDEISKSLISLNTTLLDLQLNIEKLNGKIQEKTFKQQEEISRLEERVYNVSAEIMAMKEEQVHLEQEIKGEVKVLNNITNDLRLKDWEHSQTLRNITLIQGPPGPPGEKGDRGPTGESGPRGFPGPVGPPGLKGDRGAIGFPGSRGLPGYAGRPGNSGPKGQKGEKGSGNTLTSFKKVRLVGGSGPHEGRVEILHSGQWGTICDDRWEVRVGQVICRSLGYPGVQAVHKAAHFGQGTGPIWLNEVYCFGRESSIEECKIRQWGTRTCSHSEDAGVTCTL
Briefly: ECL cell binding, HEK293.mfMSR1 cells, 11 nM.
Experimental: All cells were washed once with 1×PBS with Ca²⁺/Mg²⁺ and counted with a Cellometer™ Auto T4 cell counter (Nexcelom Bioscience). Approximately 1.0×10⁴ cells were seeded separately onto 96-well carbon electrode plates [MULTI-ARRAY high bind plate, Meso Scale Diagnostics] and incubated for 1 hour at 37° C. Non-specific binding sites were then blocked by 2% BSA (w/v) in PBS with Ca²⁺/Mg²⁺ for 1 hour at room temperature. THP-1 cells were pre-incubated for 0.5 hours at room temperature in sample dilution buffer with: 1) 1 mg/mL Fc receptor block reagents to block Fc gamma receptors on THP-1 cell surface [whole molecule human IgG (Jackson Immunoresearch, Cat #009-000-003) for wells being tested with anti-MSR1-mFc antibodies or 2) whole molecule mlgG (Jackson Immunoresearch, Cat #015-000-003) for wells being tested with anti-MSR1-hFc antibodies. Antibody binding on HEK293.Myc.hMSR1, HEK293.mfMSR1 and HEK293 cells was tested without Fc receptor block reagents. […] Plates were then washed to remove unbound antibodies an AquaMax2000 plate washer with a cell washing head (MDS Analytical Technologies). […] Plates were washed and developed with Read Buffer (Meso Scale Diagnostics, Cat # R92TD-2) according to manufacturer's recommended procedure and luminescent signals were recorded with a SECTOR Imager 600 (Meso Scale Diagnostics). Luminescence intensity, measured in relative light units (RLU), was recorded to indicate the binding intensity of each antibody at the range of concentrations.

In experiment [2] the target is T2, full length human MSR1 with a C-terminal Myc tag, on HEK293.Myc.hMSR1 cells (human, UniProt P21757 1-451).
T2 construct: whole, on cells; stably expressed on engineered HEK293 cells; not shown: C-terminal Myc tag
T2 sequence (looked up): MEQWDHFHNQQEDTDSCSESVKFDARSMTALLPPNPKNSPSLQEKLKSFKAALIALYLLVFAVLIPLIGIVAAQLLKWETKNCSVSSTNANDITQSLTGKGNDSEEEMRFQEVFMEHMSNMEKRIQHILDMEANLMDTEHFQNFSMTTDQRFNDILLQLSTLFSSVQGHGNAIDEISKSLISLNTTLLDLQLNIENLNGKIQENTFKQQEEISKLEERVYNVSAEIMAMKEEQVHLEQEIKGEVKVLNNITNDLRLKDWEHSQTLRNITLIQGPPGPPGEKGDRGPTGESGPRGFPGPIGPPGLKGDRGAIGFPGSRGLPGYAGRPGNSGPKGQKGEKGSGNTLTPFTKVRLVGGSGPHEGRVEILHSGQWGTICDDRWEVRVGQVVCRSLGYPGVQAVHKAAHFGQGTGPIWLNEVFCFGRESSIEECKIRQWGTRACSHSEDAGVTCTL
Put plainly: ECL cell binding, HEK293.Myc.hMSR1 cells, 11 nM.

For experiment [3], the target named is T1, full length monkey MSR1 on …. Briefly: ECL cell binding, HEK293.mfMSR1 cells; section head of Table 10.
Experiment [4] addresses T3, human MSR1 extracellular domain expressed with a N-terminal nonahistidine tag (His9-hMSR1); R&D Systems, Cat … (human, UniProt P21757 77-451).
T3 construct: extracellular domain; Bought reagent; also called His-hMSR1; 9xHis-hMSR1
T3 sequence: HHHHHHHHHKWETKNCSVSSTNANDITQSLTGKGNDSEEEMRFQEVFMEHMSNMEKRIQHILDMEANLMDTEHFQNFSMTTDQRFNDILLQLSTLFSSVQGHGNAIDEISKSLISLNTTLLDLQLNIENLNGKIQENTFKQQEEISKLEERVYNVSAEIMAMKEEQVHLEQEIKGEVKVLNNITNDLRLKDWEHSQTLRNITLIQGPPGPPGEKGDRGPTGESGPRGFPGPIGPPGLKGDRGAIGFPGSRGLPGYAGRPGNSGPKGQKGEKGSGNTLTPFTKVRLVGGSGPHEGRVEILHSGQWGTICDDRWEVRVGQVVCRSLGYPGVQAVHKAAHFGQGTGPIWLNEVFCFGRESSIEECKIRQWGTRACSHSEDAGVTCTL
Put plainly: SPR Biacore T200, 25 C, antibody captured by anti-human Fc, His9-hMSR1 injected. (In SPR one partner is held on a chip, and binding of the other changes the refractive index at the surface.)

Experiment [5] deals with T3, human MSR1 extracellular domain …. Described as above. This is another data set of the same source.
Experimental: (§1) All binding studies were performed in 10 mM HEPES, 300 mM NaCl, 3 mM EDTA, and 0.05% v/v Surfactant Tween-20, pH 7.4 (HBS-ET) running buffer at 25° C.
(§2) The association rate (kₐ) and dissociation rate (kd) were determined by fitting the real-time binding sensorgrams to a 1:1 binding model with mass transport limitation using Scrubber 2.0c curve-fitting software. Binding dissociation equilibrium constant (KD) and dissociative half-life (t½) were calculated from the kinetic rates as:
Experiment [6] shares this target. Briefly: SPR Biacore T200, 25 C, antibody captured by anti-human Fc, His9-hMSR1 injected; no dissociation seen, kd fixed at 1.00E-05.
Experimental: as §1, §2
Experiment [7] has the same target. The experiment is described as above. This is another data set of the same source.
Experimental: as §1, §2

The results in this text go back to patent US20190367631A1 (Regeneron, published 2019).

Where two headings read alike, the source gives them in different places.

B1: H1xH29282P2 (antibody, V domains shown)
VH: EVQLVESGGGLVQPGGSLRLSCAASGFTFSTYAMSWVRQAPGKGLEWVSTISGRSDITYFADSVKGRFTVSRDNSKTTLYLQMNSLRAEDTAVYYCATDDDLPLDYWGQGTLVTVSS
VL: not shown
Turning to B1, the “ratio of binding signal (RLU) to isotype control” value is 1 fold in experiment [1] and 9 fold in experiment [2]. Also, the binding result in experiment [3] is “no binding (tested: 11 nM)”.

B2: H1H21234N-N297Q (antibody, human IgG1, V domains shown)
VH: QVQLQESGPGLVKPSETLSLTCTVTGGSISRNYWSWIRQPPGKGLEWIGYIYYSGSIDYNPSLKSRVTISVDTSKNQFSLKLSSMTAADTAVYYCARDRWNWKYGMDVWGQGTTVIVSS
VL: EIVLTQSPGTLSLSPGERATLSCRASQTVRNNYLAWYHQKPGQAPRLLIYGASSRATGIPDRFSGSGSGTDFTLTISRLEPEDFTVYYCHQYGNSPWTFGQGTKMEIKR
notes: human IgG1 Fc with N297Q (EU); also called H1H21234-N297Q
In the case of B2, the kon – broadly, the second-order rate constant of association – in experiment [4] was 220000 M⁻¹ s⁻¹; in experiment [5] it was 300000 M⁻¹ s⁻¹. The Kd (in general, the free concentration of one partner at which half of the binding sites on the other are occupied at equilibrium, for simple one-to-one binding) in experiment [6] was ≤ 0.0454 nM; in experiment [7], ≤ 0.0333 nM. For the same molecule, the koff in experiment [6] and in experiment [7] was ≤ 1e-05 s⁻¹ throughout. Besides, the t½ in experiment [6] and in experiment [7] was ≥ 19.3 h throughout.
